Biological target: large hepatitis B surface protein (hepatitis B virus)
Assay: cell-based or functional assay

In the case of neutralizing monoclonal antibody Ma18/7, the inhibition of HBV infection of HepG2-hNTCP cells, secreted HBeAg is reported as over 90%.

Reference: US20180244726A1
